The target in assay [1] is T1, interaction between AR and TR4 (Homo sapiens, UniProt P10275, DEL79-80/DUP473-473).
T1 construct: A full-length AR(pSG5AR) was co-transfected with GAL4-TR4E; expressed in transfected cells; host or cells: H1299
The assay is described as follows: Modified mammalian one-hybrid system pSG5AR / GAL4-TR4E. Format: cell-based. Particulars: 1 μM of anti androgen. On the procedure:
A full-length AR(pSG5AR) was co-transfected with GAL4-TR4E and PG5-Luc reporter in H1299 cells (pSG5AR, pSG5GR, pSG5PR, disclosed in Yeh et al., Proc Natl. Acad. Sci., 93:5517-5521 (1996), which is herein incorporated by reference at least for material related to plasmids and assays, including sequence).
Transfection was performed by a modified calcium phosphate precipitation method. The pRL-TK plasmid was co-transfected for normalization of transfection efficiency.

The target of a further assay is T2, TR4 (Homo sapiens, UniProt P49116).
T2 construct: full-length AR and TR4 in eukaryotic expression vectors (pSG5AR and pCMXTR4) were co-transfected; expressed in transfected cells; host or cells: H1299, HepG2
T2 sequence (P49116 1-615 isoform P49116-2 N175S/W419R/A428G/K503N/L504W/A613V): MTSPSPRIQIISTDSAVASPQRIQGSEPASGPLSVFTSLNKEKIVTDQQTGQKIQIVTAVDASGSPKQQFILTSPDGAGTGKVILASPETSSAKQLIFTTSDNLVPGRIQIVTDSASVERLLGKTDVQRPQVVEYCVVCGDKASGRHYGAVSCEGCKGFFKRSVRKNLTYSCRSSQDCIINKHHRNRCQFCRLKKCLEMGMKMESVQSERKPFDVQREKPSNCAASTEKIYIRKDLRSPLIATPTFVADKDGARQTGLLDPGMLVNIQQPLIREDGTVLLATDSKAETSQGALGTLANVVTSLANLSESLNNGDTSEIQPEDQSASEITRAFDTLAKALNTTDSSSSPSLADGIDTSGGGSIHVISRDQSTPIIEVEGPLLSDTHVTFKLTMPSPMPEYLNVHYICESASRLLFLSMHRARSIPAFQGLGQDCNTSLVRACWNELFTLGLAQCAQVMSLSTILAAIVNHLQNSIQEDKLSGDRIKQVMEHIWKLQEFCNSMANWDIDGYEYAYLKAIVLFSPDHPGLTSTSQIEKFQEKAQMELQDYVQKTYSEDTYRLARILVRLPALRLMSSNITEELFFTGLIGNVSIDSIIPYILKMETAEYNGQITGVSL
The assay is described as follows: TR4-mediated transactivation reporter assay. The assay is classed as cell-based. Particulars: H1299 cells; absence or presence of DHT. The method, then: Cells were routinely maintained in DMEM with 10% heat-inactivated fetal bovine serum. The cells were transfected using a modified calcium phosphate precipitation method, Mizokami, & Chang, J: Biol. Chem. 269,25655-25659 (1994), or SuperFect (Qiagen). To normalize the transfection efficiency, the (3-galactosidase expression ver and pRL-TK were co-transfected in CAT assay and in Dual-luciferase reporter assay system (Promega), respectively.
More specifically, 500 ng of reporter plasmids were co-transfected(DR4-CAT and CNTFR-15-LUC) with 200 ng of pCMX-TR4 and increasing amounts of pCMV-AR (200, 600, and 1,200 ng), pSG5GR (1,200 ng), or pSG5 PR (1,200 ng) using the SuperFect transfection kit (Qiagen) (PCMV AR Mowszowicz et al., (1993) Molecular Endocrinology 7:861:869). […] Similar results were obtained when the DR4-TK-CAT reporter was replaced with DR1-CNTFR-15-LUC, another TR4 response element (FIG. 3A). Young, et al., J: Biol. Chem. 272,3109-3116 (1997).
Another TR4 potential target gene, which is located in the hepatitis B virus (HBV) enhancer II region (−34 to −7) containing a classic DR1 motif. Breidbart, et al., Pediatric Res. 34,300-302 (1993), was investigated. The reporter plasmid CpFL(4)-LUC, which contains the HBV core promoter (Cp) sequence located between −34 and −7 (nucleotide coordinates 1751 and 1778 derived from the Genbank database) was shown above in FIG. 3B. The arrows indicate the DRI motif in HBV core promoter. HepG2 cells were co-transfected with 1.5 μg CpFL(4)-LUC reporter and 0.5 μg pCMX-TR4, with increasing amounts of pCMV-AR (0.5, 2.5, and 5 μg) by modified calcium phosphate precipitation method. The relative reporter gene activities were compared to the CAT activities (or luciferase activities) with vector alone. To normalize the transfection efficiency, the β-galactosidase expression vector and pRL-TK were co-transfected in the CAT assay and in the Dual-luciferase reporter assay system (Promega), respectively.

A further assay deals with T3, TR2 (Homo sapiens, UniProt P13056).
T3 sequence (P13056 1-603): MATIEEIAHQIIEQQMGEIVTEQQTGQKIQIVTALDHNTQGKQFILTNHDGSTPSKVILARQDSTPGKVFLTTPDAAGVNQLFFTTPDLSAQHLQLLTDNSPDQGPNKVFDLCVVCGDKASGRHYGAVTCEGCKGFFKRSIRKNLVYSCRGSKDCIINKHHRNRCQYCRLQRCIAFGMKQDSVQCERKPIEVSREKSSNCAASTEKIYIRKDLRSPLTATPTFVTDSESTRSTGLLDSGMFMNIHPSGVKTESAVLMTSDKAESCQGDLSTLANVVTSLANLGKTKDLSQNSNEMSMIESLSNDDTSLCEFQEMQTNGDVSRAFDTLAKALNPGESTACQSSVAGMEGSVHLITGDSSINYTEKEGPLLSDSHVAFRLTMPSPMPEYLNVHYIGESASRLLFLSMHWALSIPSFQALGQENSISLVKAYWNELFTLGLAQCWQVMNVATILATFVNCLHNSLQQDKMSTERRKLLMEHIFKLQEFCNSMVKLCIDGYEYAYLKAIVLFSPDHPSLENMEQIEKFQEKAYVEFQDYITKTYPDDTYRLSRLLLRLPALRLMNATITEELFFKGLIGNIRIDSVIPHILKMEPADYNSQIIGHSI
The assay is described as follows: TR2-mediated transactivation reporter assay. Format: cell-based. Particulars: H1299 cells; absence or presence of E2. The method, then:
Transfections and chloramphenicol acetyltransferase (CAT) assays were performed as described previously. Yeh, & Chang, Proc. Natl. Acad. Sci. 93, 5517-5521 (1996). Briefly, 4×10^5 cells were plated in 60-mm dishes and cultured for 24 h, and then the medium was changed to phenol red free DMEM with 5% charcoal-stripped FCS 2 h before transfection. The cells were co-transfected with TR2 and/or ER expression plasmids with 2 μg of TR2-TK-CAT reporter or 1 μg of ERE-CAT reporter gene plasmid, as indicated in the Figures, by using the calcium phosphate precipitation method. A β-gal actosidase expression plasmid, pCMV-β-gal, was transfected in all transfections as an internal control for normalizing transfection efficiency. The total amount of DNA was adjusted up to 10.5 μg with parent vectors, pSG5 or pCMV in each transcriptional activity assay. […] The cells were then harvested and whole cell extracts were used for CAT assay. The CAT activity was quantitated by Phosphorlmager (Molecular Dynamics). Data are presented as means±S.D. of at least three independent experiments.
The CAT reporter assay was used to study the potential consequence of the formation of heterodimers between the TR2 and ER. […] More specifically, H1299 cells were transiently cotransfected with 2 μg of DR4-TK-CAT reporter plasmid and 3 μg of TR2 expression plasmid together with increasing amounts of the ER expression vector. […] Cells were also transfected with internal control reporter plasmid, pCMV-β-gal, as an internal control for transfection efficiency. Luciferase activity was then analyzed following manufacturer's instructions (Promega). […] Similar results were obtained when the DR4-TK-CAT reporter with DR1-HBV-LUC were replaced, another TR2 response element (FIG. 7C).
This conclusion was further confirmed by using the chimera receptor, TR2-androgen receptor (AR) ARp-TR2, which was generated by swapping TR2 proximal box (P-box) with that found in the AR. […] Luciferase activity was then analyzed following manufacturer's instructions (Promega). […]
(In general: Reporter assays use an easily measured gene product as a stand-in for the process of interest.)

For assay [2], the target named is T4, TR4 orphan receptor (TR4), full-length (human, UniProt P49116 1-596).
T4 construct: Full-length TR4; 35S-labeled when in vitro translated, expressed from plasmids in the cell assays; also called pCMX-TR4; pCMV-TR4
T4 sequence: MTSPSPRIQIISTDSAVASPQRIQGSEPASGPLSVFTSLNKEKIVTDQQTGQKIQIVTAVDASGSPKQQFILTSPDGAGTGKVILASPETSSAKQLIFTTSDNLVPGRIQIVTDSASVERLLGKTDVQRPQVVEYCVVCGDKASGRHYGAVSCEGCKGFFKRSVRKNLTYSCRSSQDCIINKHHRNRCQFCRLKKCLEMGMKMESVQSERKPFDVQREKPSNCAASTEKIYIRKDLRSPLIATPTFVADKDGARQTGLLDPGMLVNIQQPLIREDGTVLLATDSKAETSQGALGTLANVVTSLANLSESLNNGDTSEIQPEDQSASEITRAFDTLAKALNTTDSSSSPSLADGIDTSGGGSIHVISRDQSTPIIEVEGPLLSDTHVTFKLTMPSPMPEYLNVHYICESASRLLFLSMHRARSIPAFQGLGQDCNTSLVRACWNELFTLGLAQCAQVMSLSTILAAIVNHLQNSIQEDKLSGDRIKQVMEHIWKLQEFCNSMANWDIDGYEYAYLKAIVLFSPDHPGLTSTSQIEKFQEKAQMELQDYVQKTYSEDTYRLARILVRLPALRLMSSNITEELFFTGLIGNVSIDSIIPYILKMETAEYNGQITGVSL
As to the kind of experiment: Table 4, summary of interactions tested; assay not given.

T1 sequence (P10275 with tags, fused parts or gaps DEL79-80/DUP473-473): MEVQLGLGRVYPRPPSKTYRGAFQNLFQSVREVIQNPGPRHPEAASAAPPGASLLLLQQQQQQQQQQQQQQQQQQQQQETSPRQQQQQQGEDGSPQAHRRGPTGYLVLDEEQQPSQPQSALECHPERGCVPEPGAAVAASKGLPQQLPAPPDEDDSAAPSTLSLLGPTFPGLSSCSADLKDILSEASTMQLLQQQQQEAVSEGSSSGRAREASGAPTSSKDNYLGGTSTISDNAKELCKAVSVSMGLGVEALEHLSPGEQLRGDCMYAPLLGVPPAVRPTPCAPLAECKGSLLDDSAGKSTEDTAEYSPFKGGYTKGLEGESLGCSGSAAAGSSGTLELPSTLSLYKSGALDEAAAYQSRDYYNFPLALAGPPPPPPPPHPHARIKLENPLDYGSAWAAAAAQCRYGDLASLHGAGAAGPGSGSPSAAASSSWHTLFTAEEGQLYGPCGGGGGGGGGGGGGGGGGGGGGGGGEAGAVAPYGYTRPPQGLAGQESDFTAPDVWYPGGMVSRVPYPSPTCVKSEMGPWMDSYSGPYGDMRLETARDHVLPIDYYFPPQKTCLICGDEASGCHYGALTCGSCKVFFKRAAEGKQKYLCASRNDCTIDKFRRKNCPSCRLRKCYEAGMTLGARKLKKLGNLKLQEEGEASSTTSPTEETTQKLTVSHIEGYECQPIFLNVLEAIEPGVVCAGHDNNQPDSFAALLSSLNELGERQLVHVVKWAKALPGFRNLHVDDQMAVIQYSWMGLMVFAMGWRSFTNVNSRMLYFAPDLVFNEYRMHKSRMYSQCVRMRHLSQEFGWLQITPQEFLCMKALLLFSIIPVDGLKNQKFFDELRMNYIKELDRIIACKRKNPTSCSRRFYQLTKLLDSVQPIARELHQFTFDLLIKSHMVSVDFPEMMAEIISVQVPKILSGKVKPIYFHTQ

Consider `CC1(C)C(=O)N(c2ccc(C#N)c(C(F)(F)F)c2)C(=O)N1CCCCO` [RU58841], for which the “Effect on DHT-enhanced interaction between AR and TR4” value in assay [1] is “abolish”.

With `CC(C)(O)C(=O)Nc1ccc([N+](=O)[O-])c(C(F)(F)F)c1` [hydroxyflutamide], in assay [1], the “Effect on DHT-enhanced interaction between AR and TR4” value is given as “abolish”.

For the molecule GR: glucocorticoid receptor, the “CAT activity induced by pCMXTR4 (DR4-TK-CAT; similar with DR1-CNTFR-I5-LUC)” value in the assay with TR4 is on record as “no suppressive effects”. Also, in the assay with TR2, the “CAT activity induced by pCMV-TR2 (DR4-TK-CAT; similar with DR1-HBV-LUC)” value is “no suppressive effect”.

B1: estrogen receptor (ER), full-length (receptor)
chain: MTMTLHTKASGMALLHQIQGNELEPLNRPQLKIPLERPLGEVYLDSSKPAVYNYPEGAAYEFNAAAAANAQVYGQTGLPYGPGSEAAAFGSNGLGGFPPLNSVSPSPLMLLHPPPQLSPFLQPHGQQVPYYLENEPSGYTVREAGPPAFYRPNSDNRRQGGRERLASTNDKGSMAMESAKETRYCAVCNDYASGYHYGVWSCEGCKAFFKRSIQGHNDYMCPATNQCTIDKNRRKSCQACRLRKCYEVGMMKGGIRKDRRGGRMLKHKRQRDDGEGRGEVGSAGDMRAANLWPSPLMIKRSKKNSLALSLTADQMVSALLDAEPPILYSEYDPTRPFSEASMMGLLTNLADRELVHMINWAKRVPGFVDLTLHDQVHLLECAWLEILMIGLVWRSMEHPVKLLFAPNLLLDRNQGKCVEGMVEIFDMLLATSSRFRMMNLQGEEFVCLKSIILLNSGVYTFLSSTLKSLEEKDHIHRVLDKITDTLIHLMAKAGLTLQQQHQRLAQLLLILSHIRHMSNKGMEHLYSMKCKNVVPLYDLLLEMLDAHRLHAPTSRGGASVEETDQSHLATAGSTSSHSLQKYYITGEAEGFPATV
notes: 35S-labeled when in vitro translated for the pull-downs; endogenous in MCF7 cells for the co-immunoprecipitation; also called ERα; pSG5-ER
Regarding B1, in assay [2], the binding result is “binds”.

B2: PR: progesterone receptor (protein)
chain: MTELKAKGPRAPHVAGGPPSPEVGSPLLCRPAAGPFPGSQTSDTLPEVSAIPISLDGLLFPRPCQGQDPSDEKTQDQQSLSDVEGAYSRAEATRGAGGSSSSPPEKDSGLLDSVLDTLLAPSGPGQSQPSPPACEVTSSWCLFGPELPEDPPAAPATQRVLSPLMSRSGCKVGDSSGTAAAHKVLPRGLSPARQLLLPASESPHWSGAPVKPSPQAAAVEVEEEDGSESEESAGPLLKGKPRALGGAAAGGGAAAVPPGAAAGGVALVPKEDSRFSAPRVALVEQDAPMAPGRSPLATTVMDFIHVPILPLNHALLAARTRQLLEDESYDGGAGAASAFAPPRSSPCASSTPVAVGDFPDCAYPPDAEPKDDAYPLYSDFQPPALKIKEEEEGAEASARSPRSYLVAGANPAAFPDFPLGPPPPLPPRATPSRPGEAAVTAAPASASVSSASSSGSTLECILYKAEGAPPQQGPFAPPPCKAPGASGCLLPRDGLPSTSASAAAAGAAPALYPALGLNGLPQLGYQAAVLKEGLPQVYPPYLNYLRPDSEASQSPQYSFESLPQKICLICGDEASGCHYGVLTCGSCKVFFKRAMEGQHNYLCAGRNDCIVDKIRRKNCPACRLRKCCQAGMVLGGRKFKKFNKVRVVRALDAVALPQPVGVPNESQALSQRFTFSPGQDIQLIPPLINLLMSIEPDVIYAGHDNTKPDTSSSLLTSLNQLGERQLLSVVKWSKSLPGFRNLHIDDQITLIQYSWMSLMVFGLGWRSYKHVSGQMLYFAPDLILNEQRMKESSFYSLCLTMWQIPQEFVKLQVSQEEFLCMKVLLLLNTIPLEGLRSQTQFEEMRSSYIRELIKAIGLRQKGVVSSSQRFYQLTKLLDNLHDLVKQLHLYCLNTFIQSRALSVEFPEMMSEVIAAQLPKILAGMVKPLLFHKK
As to B2, the “CAT activity induced by pCMXTR4 (DR4-TK-CAT; similar with DR1-CNTFR-I5-LUC)” value with TR4 is recorded as “no suppressive effects”. In addition, in the assay with TR2, the “CAT activity induced by pCMV-TR2 (DR4-TK-CAT; similar with DR1-HBV-LUC)” value is listed as “no suppressive effect”.

For the origin of these results see patent US20030235860A1, “Interactions between AR, ER, TR2, and TR4” (priority 1999, published 2003).
